Here are results for 1 molecule from patent publication US11912777 (NANJING LEADS BIOLABS, dated 2024).

Assay [1] concerns the target T1, extracellular region of mouse TNFR2 (mouse, UniProt P25119 23-258).
T1 construct: The entry includes a signal peptide marked only by underlining (not visible here)
T1 sequence: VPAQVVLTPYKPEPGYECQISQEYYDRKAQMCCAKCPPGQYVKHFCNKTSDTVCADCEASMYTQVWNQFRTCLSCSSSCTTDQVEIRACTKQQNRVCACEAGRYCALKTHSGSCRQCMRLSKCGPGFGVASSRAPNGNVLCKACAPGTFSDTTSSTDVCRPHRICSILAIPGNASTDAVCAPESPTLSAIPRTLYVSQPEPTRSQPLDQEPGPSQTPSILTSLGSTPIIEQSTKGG
The assay is described as follows: ELISA, TNFR2 protein coated at 0.5 µg/mL. In general terms: In an ELISA, binding on a coated surface is turned into a signal by an enzyme label.

Assay [2] concerns the target T2, mouse TNFR2 variant 019-0-1 (human segment 1L-54D) (mouse with a human segment).
T2 construct: Mouse TNFR2 extracellular domain with the human segment, followed by a human Fc
Description: ELISA on coated variant 019-0-1, epitope mapping; upper panel.

The target in assay [3] is T3, mouse TNFR2 variant 019-0-0.5 (human segment 1L-31C) (mouse with a human segment).
T3 construct: Mouse TNFR2 extracellular domain with the human segment, followed by a human Fc
The assay is described as follows: ELISA on coated variant 019-0-0.5, epitope mapping; upper panel.

The target of assay [4] is T4, human OX40 (Sino Biological, Cat #10481-H08H) (human, UniProt P43489 29-216).
T4 construct: Bought reagent coated on ELISA plates
T4 sequence (looked up): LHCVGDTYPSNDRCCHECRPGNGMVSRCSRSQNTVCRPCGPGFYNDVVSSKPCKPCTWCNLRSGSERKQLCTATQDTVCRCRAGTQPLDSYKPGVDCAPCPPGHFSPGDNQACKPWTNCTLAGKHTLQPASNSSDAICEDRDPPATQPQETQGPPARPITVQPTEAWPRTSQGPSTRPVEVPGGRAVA
Description: ELISA, protein coated.

Assay [5] concerns the target T5, human HVEM (Sino Biological, Cat #10334-H03H) (human, UniProt Q92956 39-202).
T5 construct: Bought reagent coated on ELISA plates
T5 sequence (looked up): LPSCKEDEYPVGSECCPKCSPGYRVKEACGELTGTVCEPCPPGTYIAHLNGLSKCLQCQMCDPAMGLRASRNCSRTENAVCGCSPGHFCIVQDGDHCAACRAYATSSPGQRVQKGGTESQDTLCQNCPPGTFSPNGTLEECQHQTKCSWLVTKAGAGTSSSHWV
The assay is described as follows: ELISA, protein coated.

For assay [6], the target named is T6, human 4-1BB (Sino Biological, Cat #10041-H08H) (human, UniProt Q07011 24-186).
T6 construct: Bought reagent coated on ELISA plates
Description: ELISA, protein coated.

In assay [7] the target is T7, human GITR (Sino Biological, Cat #13643-H08H) (human, UniProt Q9Y5U5 26-161).
T7 construct: Bought reagent coated on ELISA plates
T7 sequence (looked up): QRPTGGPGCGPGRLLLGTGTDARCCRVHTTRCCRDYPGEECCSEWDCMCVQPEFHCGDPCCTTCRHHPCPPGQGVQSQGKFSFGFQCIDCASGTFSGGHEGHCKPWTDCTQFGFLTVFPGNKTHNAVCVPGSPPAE
The assay is described as follows: ELISA, protein coated.

Assay [8] concerns the target T8, human CD40 (Sino Biological, Cat #10774-H08H) (human, UniProt P25942 21-193).
T8 construct: Bought reagent coated on ELISA plates
The assay is described as follows: ELISA, protein coated.

The target in assay [9] is T9, human CD27 (Sino Biological, Cat #10039-H31H) (human, UniProt P26842 20-192).
T9 construct: Bought reagent coated on ELISA plates
T9 sequence (looked up): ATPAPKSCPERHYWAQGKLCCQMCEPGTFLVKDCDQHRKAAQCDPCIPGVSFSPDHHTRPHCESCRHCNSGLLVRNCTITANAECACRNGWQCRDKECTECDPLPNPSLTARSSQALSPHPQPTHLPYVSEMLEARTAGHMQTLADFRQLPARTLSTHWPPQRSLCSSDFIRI
Description: ELISA, protein coated.

The target in assay [10] is TNFR2. The assay is described as follows: ELISA on coated TNFR2, positive control of the TNFR superfamily cross-binding test; lower panel.
The target in assay [11] is T10, His-tagged cynomolgus monkey TNFR2 (Sino Biological, Cat #90102-C08H) (cynomolgus monkey, UniProt A0A2K5VET2 132-366).
T10 construct: Bought reagent, analyte in BLI; also called Cynomolgus TNFR2; recombinant cynomolgus monkey TNFR2; not shown: His tag
T10 sequence: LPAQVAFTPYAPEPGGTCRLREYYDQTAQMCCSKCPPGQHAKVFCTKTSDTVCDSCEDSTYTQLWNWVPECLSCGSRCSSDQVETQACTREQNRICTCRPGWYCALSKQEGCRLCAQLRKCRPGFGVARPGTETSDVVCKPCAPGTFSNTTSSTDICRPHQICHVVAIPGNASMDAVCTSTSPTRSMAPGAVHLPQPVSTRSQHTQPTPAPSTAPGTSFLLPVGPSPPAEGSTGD
The assay is described as follows: BLI (Octet RED 96), antibody on Fc capture tips, His-tagged TNFR2 as analyte, 1:1 global fit. For orientation: In BLI a coated tip is dipped into the sample, and binding shifts an interference pattern.

Assay [12] has as its target T11, His-tagged human TNFR2 (Sino Biological, Cat #10417-H08H) (human, UniProt P20333 23-257).
T11 construct: Bought reagent, analyte in BLI; also called recombinant human TNFR2; not shown: His tag
T11 sequence (looked up): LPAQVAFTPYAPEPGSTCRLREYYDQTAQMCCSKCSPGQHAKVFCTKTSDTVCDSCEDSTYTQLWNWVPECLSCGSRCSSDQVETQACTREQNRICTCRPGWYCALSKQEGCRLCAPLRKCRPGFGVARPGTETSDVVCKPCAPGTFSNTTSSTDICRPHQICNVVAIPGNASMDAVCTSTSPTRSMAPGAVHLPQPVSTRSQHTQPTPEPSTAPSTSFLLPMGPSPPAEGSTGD
Described as above.

The target in assay [13] is T12, Q4A.
T12 construct: also called human TNFR2 Q4A
T12 receptor: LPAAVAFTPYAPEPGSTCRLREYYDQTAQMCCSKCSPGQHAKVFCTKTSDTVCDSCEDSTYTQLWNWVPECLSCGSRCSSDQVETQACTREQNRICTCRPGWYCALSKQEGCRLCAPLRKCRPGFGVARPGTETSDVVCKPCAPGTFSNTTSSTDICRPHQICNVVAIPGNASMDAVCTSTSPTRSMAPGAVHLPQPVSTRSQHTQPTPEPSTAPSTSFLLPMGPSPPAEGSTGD
The assay is described as follows: ELISA on coated human TNFR2 mutant Q4A; lower panel.

T8 sequence (P25942 21-193 limits assumed): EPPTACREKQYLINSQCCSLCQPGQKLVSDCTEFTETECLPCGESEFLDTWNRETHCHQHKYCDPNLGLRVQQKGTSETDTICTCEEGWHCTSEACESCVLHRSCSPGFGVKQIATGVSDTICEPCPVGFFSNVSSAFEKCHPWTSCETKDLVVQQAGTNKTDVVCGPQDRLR

B1: humanized antibody hu3-E (Hu3-H3/Hu3-L1) (antibody, human IgG1, kappa, V domains shown)
VH: QIQLVQSGAEVKKPGASVKVSCKASGYTFTTYGMSWVRQAPGQGLEWMGWIHTYSGVPTYADDFKGRFAFTLDTSTSTAYMELRSLRSDDTAVYYCARGLYGVDYWGQGTLVTVSS
VL: EIVMTQSPATLSLSPGERATLSCKASENVVTYVSWYQQKPGQAPRLLIYGASNRYTGIPARFSGSGSATDFTLTISSLQPEDFAVYYCGQSYTYPYTFGQGTKLEIKR
notes: Humanized form of 43B7A4, human IgG1/kappa
Regarding B1, the binding result in assay [1], in [4], in assay [5], in [6], in assay [7] and in assay [8] was “no binding (tested: starting concentration 0.4 µg/mL)” throughout. Moreover, the binding result in assay [9] is “no binding (tested: starting concentration 0.4 µg/mL)”; in assay [13] it was “binds”. Further, the concentration giving a half-maximal response (EC50 (read off the curve)) (usually the concentration needed to bring the measured effect to its halfway point) was roughly 6 ng/mL in assay [2], roughly 6 ng/mL in assay [3] and roughly 0.06 nM in [10]. Besides, the equilibrium dissociation constant (Kd) – broadly, the free concentration of one partner at which half of the binding sites on the other are occupied at equilibrium, for simple one-to-one binding – was 3.62 nM in assay [11] and 5.32 nM in [12]. Moreover, the results for the koff in assay [11] and in assay [12] were 0.00185 s⁻¹ and 0.00192 s⁻¹, respectively. The kon (usually a measure of how fast the partners come together) in [11] stood at 512000 M⁻¹ s⁻¹; in [12], 361000 M⁻¹ s⁻¹.
